Protein production data for 19 sequences are collected here from a protein production outcome set (Wang et al. 2014).
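Further: failed if final PepcDB status was selected cloned or expressed and not failed if soluble or beyond.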

The data set is described as follows: label from the status in PepcDB records.
As to “MSNFSEGEIFIANIEKKSLECRENDEIVVLKICELCNIIYPIFNKIFGNGFVGDTLKKDLKNSSSQVQRAIEKFPEETKYVSMLYSYNINKYENMEKLKRDLDNGIISFLWMKRTLEFIITFLEKCYITCSETKLSICAQEAYNEVLKKYHGFITSKIVKLCLKLSPTKDILTKKLGFQTHQQASTVLQKCLSITKPLVRDISVTIEKFNCDFEEKI”, the protein production entry is recorded as “failed”.
For the sequence “MSEELMISPAAPAAPAAGSALTSAQFRKLAEVPPEIEWFANIDSLQTRRAYQNDLRGFMAFAGIVSPEDFRLITRSHVLAWRKRLEEEQLGGATIRRKLAALSSLFEYLCEANAVTHNPVKGVKRPPVESWQGKTPALGDVQARALLEAPNAKTLKGKRDRAILSALLYHGIRREELARLKVKDYNQSRRGVPHLRIKGKGGKMRFIPTHPGTLTLIEEYLEAAGHGHDPDAPLFRPVKNNVHGHTLTALTPDSIYFEVVLKYLRKLGIFGENMGPHVMRATAATNALDNGADIAKVQEWLGHANIATTRIYDHRKTRPEDSPTFKVSY”, the protein production result is listed as “failed”.
As to “MTAPLHLDSLFPSLDAIPEQYRPDAPIEQRDYLVDGQLRHWDGPLAPVRSPVFLAEADGERQVILGSTPLLDADAALAALDAAVRAYDHGQGLWPNLRVAERIQHVERFLARMREQREAVVKLLMWEIGKNLKDSEKEFDRTCDYIVDTIEALKELDRHSSRFELEQGTLGQIRRVPLGVALCMGPYNYPLNETFTTLIPALIMGNTVVFKPAKFGVLLIRPLLEAFRDSFPPGVINVIYGRGRETVSALMASGKVDVFAFIGTHSGASDLKKLHPRPHRLRAALGLDAKNPGIVLPQVDLDNAVNEAVTGALSFNGQRCTALKILFVHESVLRPFLDKFSARLASLKPGMPWEPGVALTPLPEPGKVDYLEGLLNDALAKGARVVNAGGGEHRQSFFYPALLSPVSPDMRLYHEEQFGPLVPVVPYRELDEVIDYVLRSDYGQQLSLFGNDPAQIGRLVDAFANQVGRINVNAQCQRGPDSYPFNGRKNSAEGTLSVHDALRVFSIRTLVATRDTEANKTLVSEII”, the protein production result is “failed”.
For “MANKKGRRRSFGSCRQLASGRWQVRYRDPQTGLLRPAEKTYETKTDAQVALTHIEADITRGQWADPDAGDVNFADYATAWLRDRKLADRTRERNESVMRLHVVPVFGAGSIADVTTARVRSWRGKLLAAGVGEPTVVKAYQLLRALMNTAVDDELIRRNPCRIKGADSYDVPERPVLSVAEVFGVAYAIAPRYRLLVLLAAFTTLRFGELAALRRKDIDLNGRLVVVRRAQAELQNGRLFDKAPKSAAGLRTVSFPAELVDEISHHLKHYAADGQEGHLFVGPQGGQLRRSNFRDDWIKARKAAGVSPKLHFHDLRHTGNTLASTAGASTRELMTRMGHSSSRAALIYQHMTSDRDRTIADRLGAMIRNGEGDLTAAGD” the value was “failed”; for “MKHIHIIGIGGTFMGGLAAIAKEAGFEVSGCDAKMYPPMSTQLEALGIDVYEGFDAAQLDEFKADVYVIGNVAKRGMDVVEAILNLGLPYISGPQWLSENVLHHHWVLGVAGTHGKTTTASMLAWVLEYAGLAPGFLIGGVPENFGVSARLPQTPRQDPNSQSPFFVIEADEYDTAFFDKRSKFVHYRPRTAVLNNLEFDHADIFADLGAIQTQFHYLVRTVPSEGLIVCNGRQQSLQDTLDKGCWTPVEKFGTEHGWQAGEANADGSFDVLLDGKTAGRVKWDLMGRHNRMNALAVIAAARHVGVDIQTACEALGAFKNVKRRMEIKGTANGITVYDDFAHHPTAIETTIQGLRQRVGGARILAVLEPRSNTMKLGTMKSALPVSLKEADQVFCYAGGVDWDVAEALAPLGGRLNVGKDFDAFVAEIVKNAEVGDHILVMSNGGFGGIHGKLLEALR”, “not failed”.
Turning to “MRLLYVIKKENPMDQMPNCPKCQSEYVYHDSINFVCPDCGNEWDNNEIQESDDDQLIVKDSNGNLLAEGDNVLLIKDLKLKGSSEVLKKGTKFKNIRLVNGDHNVDCGKIMLKSEFLKKALEHHHHHH”, the protein production entry was “not failed”.
For “MNSNVNDRKPRLVFFQWDHQPNANAAGYLLLHMQQQVKCLSTHFDVVVINRDCDYAEICDRYEPDLTLFESGYRSHGSRRIKITNTNTHIAVPKLGLHNADAWCDRRAGFLSDMEQWGIEAYFAIATMTPEYMPAVKENLFVWPNFIDPDVYHDYGQQKVIPAMLTGQAYGLYPWRQTVFPMIRDRYPCLVSPQHAYESKLASQLLSGEAYARALNASLVVPTCGTMGGEVVRKHFEIPGAKACLVTERTPAVEAAGFVDMENCVFVDGHNVVERLDYLFAHPDEIRHITTAGYSLIHSRHTLSHRPQIYQWFMLSKGLQFGEKIIQSGPFGDLTKVQRISRQESVHIVGEASDRALLKQGDLLLEQGRVEEAKQCYARCLDYVSYLPEAKFRLAICALQQGDADRAYGLMVGLVKVTMTEYEALNPDPVEWAYFLLALICRGQFERARRLQDFYPSLSHDEFRRARLVIALLGGSGDAAVSGRYGRDRKSIHQIPDRSDSEWLAWFSDILERCQQPDLANVLRHAPVGRSGVGEKVTFLHFKRDAGWRLRLYSGVDGLMVGLHLNGLRPNVPPLPEFRYFSHLARRLVPHSQRGPLRRIRTALSRLPVGTGN” the value was “failed”; for “MWRYRSPEMPLTESFLDLMLIPIIGFGLAVILLIGFFLLYQEVGIFKNLKFLVIRKNNPFFILALFCLITGLALGLVGYWGILEPKLGAADLQALRRNLIILSLLLFGVTFRQYLFDLIKPVTTMAIWRKIGTFNYKNRIAILTYVLLGLIALAWMAPMASTKIIFSINDHTSHIGYIVQGRMALEEGQFPLRVAPLENFGFRYPGFQFYSQLPYFFGAIIYKFLTPTNPYTAYKILLWSALWLGGIFIYRVGFFFTRSQIAAILGGVTYMSAPYFLNNVHARGAFTEAIAQGILAIVLFYAIQTFYYPHYRHLILGALAWCALGLTHIITFVYTTIFIALLGAIFLVKNKPNHWQKGITYISLSYIWAWLLALYFLAPVALESGSLAIRRQIQAINPFNTTDITPIANLLAPNSLPHQPTELGIAPTYGFHPAVGWILLAGFGTVIYFVFAGKSLPRRLWRSQPWLIPLLSVFILALFLTWSPVNIWNLLPRQLWVTQFTFRFLTHVMWSGALLTTLAIILIFRERLRSRHLILGILIIVIASRPWLPIPRGTVTVEELLQDPLFRYSGALDYLYRLPNKAVPVNTKAQSAVEKIYGKAELQLLHPDWIPGYLSWDVFINGPLPIDVDIPYPAWPETEKPTLVLQGRVPMDKIKSQANLIVFVDQQPLTSIPLTQEELKVKVPFTDVKFAGNAFELKFIVEGETTDGNPLYIRMNHLYFDDFSAANTLLPVHATKEMCNQKGVVTNCPVEMPAEAGTVQLPILYYPAMQQVVVDNQPVKGFFTNYRDFNLLSLNLSPGKHQIQVKFTGLIWANFISLLAWLTLIITAIALKFYPRKPEQTIFK”, “failed”; for “MLAAEANLELDRETIRRQLWQSEAPEKRAGSLRQLLARIEQSIPAALPPLLKATRTHIGLADGWEVDVHMLKQKGPLAAEDGDILNGELLESAKSPTQGAEDWLTFERQRVDELRAAHLTRLVETAEDRSDEEQVAFARRLLELDPASETAYRALMRTYVRMNDPAAARQTYLKCKSQLKDEFDAEPEESTTALARELGLIPAAQPAAAERPSAGPSGFADLLGQPRIIILPPESIFTDPLMERVGRALLEDVTIGLSQQRGFRVIAAHTSLEILSRSVDPARAVPRPLDLSFDYAVYVTIQGRDEDVYATCRLTRTTTSEVIWALELPLVMQKISESFAHLTRRIVSSLADTVERHELAMPIGDAPPSAYRLYLEGKRLIAQTDLQHLRQARKWFKSSLNRYENFSAAHAGVSRALGMEWLIRGMQDTELLDEANGAARQAQQSDPNSGRAYRELGFVALYRRRFDESLDYFQQAQDLNPNDADILADYADALCHYGDFDKALDLNNAAFKLNPLPPDYYYWNRGGIHFDRGEYQQAIEALEPVKSKQATARLLAAAHAMAGDMKKAGGYASVVLDNFPDFRSEDIRHFVPDRDPRYTETLIHGLHLAGLP”, “failed”.
For “AIANDDRATAFNALKNKTVCVQGDGNSRQFYHALVEILSNHSSAIPVNKNGNDFCNAPFAQCPQDTYYFDLVDKSDNLSVKLYWRWAPEFSDIECPMKVPSGFTPGSNYSFPSGPDTLSCDINIMDAGQWELFEKDANVTTAGYSQGVSNLSKCFSSDKSAKYFWIAAYALTPEQLQIHLPYNNTDVERINEVATQGLNSTACVLNGYDVTVNAFNDTKEATTDGIHYLGWINEQVVHLFFNAVTNSSAPTVPSSNVSVTSPNVQLGQVPNLNPSTTNSFLPVQTIVTVPSSSATSASSGLNFGGSSQGGGSGIPQL” the value was “failed”.
In the case of “IKQMLLDWCRAKTRGYEHVDIQNFSSSWSDGMAFCALVHNFFPEAFDYGQLSPQNRRQNFEVAFSSAETHADCPQLLDTEDMVRLREPDWKCVYTYIQEFYRCLVQKGLVKTKKS”, the protein production entry is “not failed”.
In the case of “VEIRTGEFEDVAGITDIFNFYIEHTNARFEEFPFTLENREEWFSQFSRTTKYQIYVAVENGVLQGFACSQKYRAIPAFDDTVEVSVYLAQEAKGKGLGSKLYTQLFSSIRAYGVHRILSGVALPNDASVALHKRFGFREVGIFNEYAKKHGQYISSVWLEKALNVESAL”, the protein production result was “not failed”.
For “MALMTNKTRALLIGGHGKVALLATPMLIDASVQVTSMYRNPDHRSEIEALGATTLERDVTTLSVEDWADLLKDFDVVVWSAGNGGKNGADATYAIDRDAAIASIDGAASLGEKAPRYIMVSYIGSSTHTIDPSASFYPYAESKKAADEHLSSTNLDYLILAPAALTLDEVNGVEVIADTNEAAAGRTTSRVLVAEVITEFVVRDFPQTRVLPFVDGESPLEHHHHHH” the value was “not failed”; for “AALVRQHLDALPAASVPDLPAMARLLCTSVRTLKRRLQEEGTCYRQVLAGHRGARALELLGNPRLSLSQVAERLGFSDLSSFSQSFKRWFGVAPSVYRQERCG”, “failed”; for “MASDAPTGHVSDLDWLMSGLVQRVPHTTSAVLLSCDGLVKSVHGLDPDSADHMAALASGLYSLGRSAGIRFGDGGDVRQVVVELDSTLLFVSTAGSGTCLAVLAGREADAAVLGYEMAMLVKSVRPYLMTAPRQAAAQPPAMRP”, “failed”.
For “MASGSPPSQPSPASGSGYVPGSVSAAFVTCPNEKVAKEIARAVVEKRLAACVNLIPQITSIYEWKGKIEEDSEVLMMIKTQSSLVPALTEFVRSVHPYEVAEVIALPVEQGNPPYLHWVHQVTESV” the value was “not failed”; for “DETIHLERGENLFEIHINKVTFSSEVLQASGDKEPVTFCTYAFYDFELQTTPVVRGLHPEYNFTSQYLVHVNDLFLQYIQKNTITLEVHQAYSTEYETIAACQLKFHEILEKSGRIFCTASLIGTKGDIPNFGTVEYWFRLRV”, “not failed”; for “MYMSSLQSTRERVLGTPRRRYKVLVAKMGLDGHDRGAKVVARALRDAGFEVVYTGLRQTPEQVAMAAVQEDVDVIGVSILNGAHLHLMKRLMAKLRELGADDIPVVLGGTIPIPDLEPLRSLGIREIFLPGTSLGEIIEKVRKLAEEKRMREEAEASEQVGQA”, “not failed”.
As to “MDHVHKSTTTDEDERNSGRAIDRHNPIIKDGRRSFADDFIKLPTSAEDGEMSNKKLEIYKGRRSITGRRSTGGGGGGGAAALLKLITNDIGLARKSFSCVARPACDLIKTPVGSTRYLLGSDPDSITGSVDQDPAKTVEAEAPAGEDKTLTEKKTTCGDTDQVSCFVVSIMSGINVNKW”, the protein production entry is reported as “failed”.
